Test results taken from the nanobody polyreactivity screen of Harvey et al. (2022).

Assay: yeast display, Sf9 membrane polyspecificity reagent, FACS + sequencing; frameworks hold sequencing errors
Procedure, shortened: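 A synthetic nanobody library was expressed on Saccharomyces cerevisiae BJ5465 by galactose induction for 36–48 hours. The library was stained for 1 hour at 4 °C with 10% biotinylated, detergent-solubilized Sf9 membrane reagent and enriched with streptavidin microbeads before FACS. Low and high (top ~1%) gates were set on anti-HA fluorescence for expression and streptavidin fluorescence for reagent binding, and each polyreactivity label reflects the gate of origin.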

| Sequence | polyreactivity (PSR sort gate) |
| --- | --- |
| QVQLVESGGGLVQAGGSLRLSCAASGRTFPVYAMGWYRQAPGKERELVAAITRSDDSTYYADSVKGRFTISRDNAKNTVYLQMNSLKPEDTAVYYCARRSRESYEYDYWGQGTQVTVSS | low polyreactivity |
| QVQLVESGGGLVQAGGSLRLSCAASGRTFPVYDMGWYRQAPGKERELVAGITGSGGRTYYADSVKGRFTISRDNAKNTVYLQMNSLKPEDTAVYYCAADRNLYWDQHEYWGQGTQVTVSS | low polyreactivity |
| QVQLVESGGGLVQAGGSLRLSCAASGRTFPYNAMGWYRQAPGKERELVAAISWRGGSTYYADSVKGRFTISRDNAKNTVYLQMNSLKPEDTAVYYCNALYPVSYDHRGDYWGQGTQVTVSS | high polyreactivity |
| QVQLVESGGGLVQAGGSLRLSCAASGRTFPYNAMGWYRQAPGKERELVAAITSSGGSTYYADSVKGRFTISRDNAKNTVYLQMNSLKPEDTAVYYFAKGYYSPNYYYWGQGTQVTVSS | high polyreactivity |
| QVQLVESGGGLVQAGGSLRLSCAASGRTFPYNTMGWYRQAPGKERELVASISYRGGTYYADSVKGRFTISRDNAKNTVYLQMNSLKPEDTAVYYCNAVYYFSPSYRGYYWGQGTQVTVSS | high polyreactivity |
| QVQLVESGGGLVQAGGSLRLSCAASGRTFPYNVMGGYRQAPGKERELVASNDGSGGSTYYADSVKGRFTISRDNAKKTVYLQMNSLKPEDTAVYYCAAVYYQSGNYWYSYLGQSPYDYWGQGTQVTVSS | low polyreactivity |
| QVQLVESGGGLVQAGGSLRLSCAASGRTFPYYAMGWSRQAPGKERQLVAAISSSGGLTYYADSVKGRFTISRDNAKNTVYLQMNSLKPEDTAVYYFNVDAWYPYQGFLVGYYYWGQGTQVTVSS | low polyreactivity |
| QVQLVESGGGLVQAGGSLRLSCAASGRTFPYYAMGWYRQAPGKERELVAAISKRGGTTYYADSVKGRFTISRDNAKNTVYLQMNSLKPEDTAVYYCAKDSAYGWVAYDYWGQGTQVTVSS | high polyreactivity |
| QVQLVESGGGLVQAGGSLRLSCAASGRTFPYYAMGWYRQAPGKERELVAAISSSGGSTYYADSVKGRFTISRDNAKNTVYLQMNSLKPEDTEVYYCAAVYQFIKWGDRYEYWGQGTQVTVSS | high polyreactivity |
| QVQLVESGGGLVQAGGSLRLSCAASGRTFPYYAMGWYRQAPGKERELVAAITWSGGSTYYADSVKGRFTISRDNAKNTVYLQMNSLKPEDTAVYYCAKDYSRWGWNMGYWGQGTQVTVSS | high polyreactivity |
| QVQLVESGGGLVQAGGSLRLSCAASGRTFPYYVMGWYRQAPGKERELVATISSSGRTYYADSVKGRFTISRDNAKNTVYLQMNSLKPEDTAVYYCAARFRWNQNYHFYSWGQGTQVTVSS | high polyreactivity |
| QVQLVESGGGLVQAGGSLRLSCAASGRTFQDNVMGWYRQAPGKETELVAAINTSSGSTYYADSVKGRFTISRDNAKNTVYLQMNSLKPEDTAVYYCFSYDYDYWGQGTQVTVSS | low polyreactivity |
| QVQLVESGGGLVQAGGSLRLSCAASGRTFQGYAMGWYRQAPGKERDLVAAISTSGARTYYADSVKGRFTISRDNAKNTVYLQMNSLKPEDTAFYYCAAGGQGGDFGDDYWGQGTQVTVSS | high polyreactivity |
| QVQLVESGGGLVQAGGSLRLSCAASGRTFQGYSMGWYRQAPGKERELVAAISRSGGRTYYADSVKGRFTISRDNAKNTVYLQMNSLKPEDTAVYYCATDAFRDYGYWGQGTQVTVSS | high polyreactivity |
| QVQLVESGGGLVQAGGSLRLSCAASGRTFQRNAMGWYRQAPGKERELVAAITSGSRTNYADSVKGRFTISRDNAKNTVFLQMNSLKPEDTAVYYCAADYTWRNNYWGQGTQVTVSS | high polyreactivity |
| QVQLVESGGGLVQAGGSLRLSCAASGRTFQRNVMGWYRQAPGKERELVAAISSSGGGTYYADSVQGRFTISRANAKNTVYLQMNSLKPDDTAVYYCAARYRSYGGYGYYYWGLGTQVTVSS | high polyreactivity |
| QVQLVESGGGLVQAGGSLRLSCAASGRTFQRYTMGWYRPAPGKETELVAVITNGGTRTYYADYVKGRLTISRDYAKNTVYLQMNSLKPEYTAVYYCAARVRYTANYDYWGQGTQVTVSS | high polyreactivity |
| QVQLVESGGGLVQAGGSLRLSCAASGRTFQYNTMGWYRQAPGKERELVAAISRSGGTTYYADSVKGRFTISRDNAKNTVYLQMNSLKPEDTAVYYCAAANSYTFRYGSWGQGTEVTVSS | high polyreactivity |
| QVQLVESGGGLVQAGGSLRLSCAASGRTFQYNVMGWYRQAPGKEREFVAAITWNGGSTYYADSVKGRFTISRDNAKNTVYLQMNSLKPEDPAVYYCAARWTKKQEYGYWGQGTQVTVSS | low polyreactivity |
| QVQLVESGGGLVQAGGSLRLSCAASGRTFQYYAMGWYRQAPGKERELVAAISWSGARTYYADSVKGRFTISRDNAKNTVYLQMNSLKPEDTAVYYCAADRYWISLWYIMGYWGQGTQVTVSS | high polyreactivity |
| QVQLVESGGGLVQAGGSLRLSCAASGRTFQYYAMGWYRQAPGKERELVAAITRGDSTYYADSVKGRFTISRDNAKNTVYLQMNSLKPEDTAVYYCNAKLYKPPFDYWGQGTQVTVSS | low polyreactivity |
| QVQLVESGGGLVQAGGSLRLSCAASGRTFQYYAMGWYRQAPGKERELVAAITSGGSTYYADSVKGRFTISRDNAKNTVYLQMNSLKPEDTAVYYCAASFYYSGHDDYWGQGTQVTVSS | low polyreactivity |

| Sequence | polyreactivity (PSR sort gate) |
| --- | --- |
| QVQLVESGGGLVQAGGSLRLSCAASGRTFQYYAMGWYRQAPGKERVLVAAITSSGGSTYYADSVKGRFTISRHNAKNTVYLQMNSLKPEDTAVYYCAAEDGLQGNYNYGYDYWGQGTQVTVSS | low polyreactivity |
| QVQLVESGGGLVQAGGSLRLSCAASGRTFQYYTMGWYRQAPGKERELVAAISSSGVSTYYADSVKGRFTISRDNAKNTVYLQMNSLKPEDTAVYYCNAVSRARYHAAYDSWGQGTQVTVSS | high polyreactivity |
| QVQLVESGGGLVQAGGSLRLSCAASGRTFRANAMGWYRQAPGKERDLVAAITWDGGSTYYADSVKGRFTISRDNAKNTVYLQMNSLKPEDTAVYYCNTDPYLWGQGTQVTVSS | low polyreactivity |
| QVQLVESGGGLVQAGGSLRLSCAASGRTFRAYAMGWYRQAPGKERELVAGITSGGSTNYADSVKGRFTISRDNAKNTVYLQMNSLKPEDTAVYYCAAKTHSRTKVYTADYWGQGTQVTVSS | high polyreactivity |
| QVQLVESGGGLVQAGGSLRLSCAASGRTFRAYSMGWYRQAPGKERELVAASSRSGGRTYYADSVKGRFTISRDNAKITVFFQINSLKPEDTAVYYCAAETKYNTHDYYYWGQATQVTVSS | high polyreactivity |
| QVQLVESGGGLVQAGGSLRLSCAASGRTFRCYAMGWYRQAPGKETELVAAITFSGGSTYYADSVKGRFTISRDNAKNTVYLQMNSLKPEDTAVYYCNAVYYRRKEYDYWGQGTQVTVSS | high polyreactivity |
| QVQLVESGGGLVQAGGSLRLSCAASGRTFRFYAMGWYRQAPGKERELVAAITGSGGSTYYADSVKGRFTISRDNAKNTVYLQMNSLKPEDTAVYYCAAQRQQRYYNPEHYNYWGQGTQVTVSS | low polyreactivity |
| QVQLVESGGGLVQAGGSLRLSCAASGRTFRFYAMGWYRQAPGKERELVAGITGGGSTNYADSVKGRFTISRDNAKNTVYLQMNSLKPEDTAVYSCNATIRYYRRGKLYDYWGQGTQVTVSS | high polyreactivity |
| QVQLVESGGGLVQAGGSLRLSCAASGRTFRFYARGWYRQAPGKERELVAAIRNGGRTNYADSVKGRFTISRDNAKISVFLQMNSLKPEDTAVYYCAIQPGISYRHYDYWGQGTQVTVSS | high polyreactivity |
| QVQLVESGGGLVQAGGSLRLSCAASGRTFRGNAMGWYRQAPAKDRELVGAGGSTYYADSVKGRFTISRDNAKNTVYLQMNSLKPEASAVYYCGAALGFSRYSWFGYGYWGQGTQVTVSS | low polyreactivity |
| QVQLVESGGGLVQAGGSLRLSCAASGRTFRGNAMGWYRQAPGKERELVAVITSGDSTYYADSVKGRFTISRDNAKNTVYLQMNSLKPEDTAVYYCATKSRFSRGKAYYYWGQGTQVTVSS | high polyreactivity |
| QVQLVESGGGLVQAGGSLRLSCAASGRTFRGNAMGWYRQAPGKEREVVAAISWSGGNTYYADSVKGRFTISRDNAKNTVYLQMNSLKPEDTAVYYCAAGSYWSPYGQSFWPKYDYWGQGTQVTVSS | high polyreactivity |
| QVQLVESGGGLVQAGGSLRLSCAASGRTFRGNVMGWYRQAPGNEREFVAASTRSGSNTYYADSVKGRFTISRDYAKTTVYLQMNSLKPEDTAVYDCAKSVLLGYKRHDSWGQGTQVTVSS | high polyreactivity |
| QVQLVESGGGLVQAGGSLRLSCAASGRTFRGYAMGWYRQAPGKERELVAAISWSGGSTYYADSVKGRFTISRDNAKNTVYLQMNSLKPEDTAVYYCNAVYRGVAYDYWGQGTQVTVSS | high polyreactivity |
| QVQLVESGGGLVQAGGSLRLSCAASGRTFRGYAMGWYRQAPGKERELVAGISRSGGSTYYADSVKGRFTISRDNAKNTVYLQMNSLKPEDTAVYYCNAVPIYYAWRRNKPFDYWGQGTQVTVSS | low polyreactivity |
| QVQLVESGGGLVQAGGSLRLSCAASGRTFRGYTMGWYRQAPGKERELVAAINWSGGRTYYADSVKGRFTISRDYAKNTVYLQMNSLKPEDTAVYDCNAVTQITGSSDGDYWGQGTQVNVSS | high polyreactivity |
| QVQLVESGGGLVQAGGSLRLSCAASGRTFRHNAMGWYRQAPGKERELVAAISSSGTNTHYADSVKGRFTISRDNAKNTVYLQMNSLKPEDTAVYYCAADRWGARRKQYHENGYWGQGTQVTVSS | high polyreactivity |
| QVQLVESGGGLVQAGGSLRLSCAASGRTFRHNAMGWYRQAPGKERELVAANSSGGSTYYADSVKGRFTISRDNAKNTVYLQLYSLKREDTAVYYCAASRYRPYGGTTTDYWGQGTQLTVSS | high polyreactivity |
| QVQLVESGGGLVQAGGSLRLSCAASGRTFRHNTMGWYRQAPGKEREFVAVITSSGGSTYYADSVKGRFTISRDNAKNTVYLQMNSLKPEDTAVYYCNAKYHLSRSTYYYWGQGTQVTVSS | high polyreactivity |
| QVQLVESGGGLVQAGGSLRLSCAASGRTFRINAMGWYRHAPGKERELVAAITRGDTNYADSVKGRFTISRDNAKNTVYLQMNSLKPEDTAVYYCNAELSFRYPVFRELDYWGQGTQVTVSS | low polyreactivity |
| QVQLVESGGGLVQAGGSLRLSCAASGRTFRINAMGWYRQAPGKEREFVASIRYSGGSTYYADSVKGRFTISRDNAKNTVYLQMNSLKPEDTAVYYCAAVRSYYRGYDYWGQGTQVTVSS | high polyreactivity |
